Laboratory results published in article PMC11711316 (Nature Communications, 2025).

Key:
[1] = molecular target: T1, Rab3GAP2 (human, full length, C-terminal 3x-FLAG) (human, UniProt Q9H2M9 1-1393); test: SEC
T1 sequence (looked up): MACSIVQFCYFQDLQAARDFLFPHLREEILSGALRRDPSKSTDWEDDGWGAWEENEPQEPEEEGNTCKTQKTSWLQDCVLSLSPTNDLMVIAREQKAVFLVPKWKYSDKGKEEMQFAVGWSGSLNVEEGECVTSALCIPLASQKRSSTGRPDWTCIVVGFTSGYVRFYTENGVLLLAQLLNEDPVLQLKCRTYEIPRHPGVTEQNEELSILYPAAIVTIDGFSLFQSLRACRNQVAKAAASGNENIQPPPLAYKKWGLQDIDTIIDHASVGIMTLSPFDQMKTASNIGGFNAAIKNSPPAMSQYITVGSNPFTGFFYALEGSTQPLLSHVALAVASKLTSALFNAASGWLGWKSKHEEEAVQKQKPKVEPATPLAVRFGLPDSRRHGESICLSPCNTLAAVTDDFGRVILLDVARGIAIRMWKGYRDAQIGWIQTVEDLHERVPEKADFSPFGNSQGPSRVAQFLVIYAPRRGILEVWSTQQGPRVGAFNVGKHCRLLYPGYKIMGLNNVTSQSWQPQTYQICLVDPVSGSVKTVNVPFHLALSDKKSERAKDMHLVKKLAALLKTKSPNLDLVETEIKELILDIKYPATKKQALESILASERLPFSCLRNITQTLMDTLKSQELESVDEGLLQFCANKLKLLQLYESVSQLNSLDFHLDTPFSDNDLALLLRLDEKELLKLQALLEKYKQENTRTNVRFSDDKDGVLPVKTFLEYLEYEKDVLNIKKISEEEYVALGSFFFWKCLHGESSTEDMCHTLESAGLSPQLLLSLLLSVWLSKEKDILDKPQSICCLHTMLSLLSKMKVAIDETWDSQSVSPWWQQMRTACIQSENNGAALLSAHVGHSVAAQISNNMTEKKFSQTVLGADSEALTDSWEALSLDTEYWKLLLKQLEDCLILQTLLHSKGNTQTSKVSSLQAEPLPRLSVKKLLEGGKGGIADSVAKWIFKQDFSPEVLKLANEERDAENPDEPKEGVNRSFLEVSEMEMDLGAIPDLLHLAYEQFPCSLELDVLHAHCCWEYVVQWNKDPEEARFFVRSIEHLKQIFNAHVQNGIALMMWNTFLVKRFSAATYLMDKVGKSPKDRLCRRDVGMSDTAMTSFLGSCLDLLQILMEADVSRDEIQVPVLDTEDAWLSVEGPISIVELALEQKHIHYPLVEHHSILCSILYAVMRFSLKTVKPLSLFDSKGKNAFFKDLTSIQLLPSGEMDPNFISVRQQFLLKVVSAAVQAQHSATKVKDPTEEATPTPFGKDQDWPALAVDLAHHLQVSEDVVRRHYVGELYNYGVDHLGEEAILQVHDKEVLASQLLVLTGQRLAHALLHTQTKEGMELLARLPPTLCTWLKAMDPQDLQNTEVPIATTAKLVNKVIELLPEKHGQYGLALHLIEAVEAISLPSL

[2] = molecular target: T2, Rab3GAP2N (N-terminal domain of Rab3GAP2, 1-544) (human, UniProt Q9H2M9 1-544); test: SEC
T2 sequence (looked up): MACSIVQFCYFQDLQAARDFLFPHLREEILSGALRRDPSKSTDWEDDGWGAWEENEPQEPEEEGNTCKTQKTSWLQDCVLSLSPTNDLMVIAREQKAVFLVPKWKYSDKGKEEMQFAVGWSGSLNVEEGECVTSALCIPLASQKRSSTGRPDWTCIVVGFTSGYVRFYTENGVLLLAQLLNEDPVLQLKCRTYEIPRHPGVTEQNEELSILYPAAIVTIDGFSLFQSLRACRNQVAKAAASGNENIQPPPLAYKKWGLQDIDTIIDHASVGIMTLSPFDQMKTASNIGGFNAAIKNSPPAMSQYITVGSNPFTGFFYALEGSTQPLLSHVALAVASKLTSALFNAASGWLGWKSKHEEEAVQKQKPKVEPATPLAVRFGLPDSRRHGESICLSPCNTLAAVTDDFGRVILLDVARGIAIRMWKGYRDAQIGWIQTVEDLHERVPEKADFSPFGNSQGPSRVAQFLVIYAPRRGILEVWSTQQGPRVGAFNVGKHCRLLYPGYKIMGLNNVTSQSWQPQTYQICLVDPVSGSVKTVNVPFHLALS

stoichiometry N [1]: 1
stoichiometry N [2]: 1
B1: Rab3GAP1 (human, full length, N-terminal TSP tag) (natural protein, UniProt Q15042 1-981, looked up)
chain: MAADSEPESEVFEITDFTTASEWERFISKVEEVLNDWKLIGNSLGKPLEKGIFTSGTWEEKSDEISFADFKFSVTHHYLVQESTDKEGKDELLEDVVPQSMQDLLGMNNDFPPRAHCLVRWYGLREFVVIAPAAHSDAVLSESKCNLLLSSVSIALGNTGCQVPLFVQIHHKWRRMYVGECQGPGVRTDFEMVHLRKVPNQYTHLSGLLDIFKSKIGCPLTPLPPVSIAIRFTYVLQDWQQYFWPQQPPDIDALVGGEVGGLEFGKLPFGACEDPISELHLATTWPHLTEGIIVDNDVYSDLDPIQAPHWSVRVRKAENPQCLLGDFVTEFFKICRRKESTDEILGRSAFEEEGKETADITHALSKLTEPASVPIHKLSVSNMVHTAKKKIRKHRGVEESPLNNDVLNTILLFLFPDAVSEKPLDGTTSTDNNNPPSESEDYNLYNQFKSAPSDSLTYKLALCLCMINFYHGGLKGVAHLWQEFVLEMRFRWENNFLIPGLASGPPDLRCCLLHQKLQMLNCCIERKKARDEGKKTSASDVTNIYPGDAGKAGDQLVPDNLKETDKEKGEVGKSWDSWSDSEEEFFECLSDTEELKGNGQESGKKGGPKEMANLRPEGRLYQHGKLTLLHNGEPLYIPVTQEPAPMTEDLLEEQSEVLAKLGTSAEGAHLRARMQSACLLSDMESFKAANPGCSLEDFVRWYSPRDYIEEEVIDEKGNVVLKGELSARMKIPSNMWVEAWETAKPIPARRQRRLFDDTREAEKVLHYLAIQKPADLARHLLPCVIHAAVLKVKEEESLENISSVKKIIKQIISHSSKVLHFPNPEDKKLEEIIHQITNVEALIARARSLKAKFGTEKCEQEEEKEDLERFVSCLLEQPEVLVTGAGRGHAGRIIHKLFVNAQRAAAMTPPEEELKRMGSPEERRQNSVSDFPPPAGREFILRTTVPRPAPYSKALPQRMYSVLTKEDFRLAGAFSSDTSFF
